Measured values from patent US20230140293A1.
Like-named read-outs stand apart in the source and are kept apart here.

Tests used:
[1] = biological target: CH505 w030.21 gp120 (HIV-1); assay: ELISA, gp120 on plate
[2] = biological target: CH505 w053.16 gp120 (HIV-1); assay: ELISA, gp120 on plate
[3] = biological target: CH505 w078.33 gp120 (HIV-1); assay: ELISA, gp120 on plate
[4] = biological target: CH505 w100.B6 gp120 (HIV-1); assay: ELISA, gp120 on plate
[5] = biological target: CH505 transmitted/founder (TF) gp120 (HIV-1); assay: ELISA, gp120 on plate
[6] = biological target: CH505 w078.15 gp120 (HIV-1); assay: ELISA, gp120 on plate
[7] = biological target: HIV-1 Env 426c.TM4 (S278R.G471S.N460D.N463D), Env-pseudotyped virus produced in 293T cells (HIV-1 clade C strain 426c); assay: cell-based or functional assay
[8] = biological target: HIV-1 CH0505TF Env on Env-pseudotyped virus produced in 293S/GnTI-/- cells (Man5-enrichment) (HIV-1); assay: cell-based or functional assay
[9] = biological target: CH0505TF Env, Env-pseudotyped virus produced in 293T cells (HIV-1); assay: cell-based or functional assay
[10] = biological target: CH0505TF Env, pseudotyped virus produced in 293S GnTI- cells (HIV-1); assay: cell-based or functional assay
[11] = biological target: HIV-1 Env 426c.TM (N276D.N460D.N463D), Env-pseudotyped virus produced in 293T cells (HIV-1 clade C strain 426c); assay: cell-based or functional assay
[12] = biological target: CH0505.w4.3 Env, pseudotyped virus produced in 293S GnTI- cells (HIV-1); assay: cell-based or functional assay
[13] = biological target: HIV-1 CH0505TF.gly4 Env on Env-pseudotyped virus produced in 293S/GnTI-/- cells (Man5-enrichment) (HIV-1); assay: cell-based or functional assay
[14] = biological target: HIV-1 CH0505TF.gly3.197 Env on Env-pseudotyped virus produced in 293T cells (HIV-1); assay: cell-based or functional assay
[15] = biological target: HIV-1 Env 426c.SM (N276D), Env-pseudotyped virus produced in 293T cells (HIV-1 clade C strain 426c); assay: cell-based or functional assay
[16] = biological target: HIV-1 Env 426c, Env-pseudotyped virus produced in 293T cells (HIV-1 clade C strain 426c); assay: cell-based or functional assay
[17] = biological target: CH0505TF.gly3.197 Env, pseudotyped virus produced in 293S GnTI- cells (HIV-1); assay: cell-based or functional assay
[18] = biological target: HIV-1 426c.TM (N276D/N460D/N463D) Env on Env-pseudotyped virus produced in 293s/GnTI-/- cells (Man5-enrichment) (HIV-1); assay: cell-based or functional assay
[19] = biological target: HIV-1 Env 426c.DM (N460D.N463D), Env-pseudotyped virus produced in 293S GnTI- cells (Man5-enriched) (HIV-1 clade C strain 426c); assay: cell-based or functional assay
[20] = biological target: HIV-1 CH0505TF.G458Y Env on Env-pseudotyped virus produced in 293S GnTI-/- cells (Man5-enrichment) (HIV-1); assay: cell-based or functional assay
[21] = biological target: CH0505TF G458C Env, pseudotyped virus produced in 293S GnTI- cells (HIV-1); assay: cell-based or functional assay
[22] = biological target: CH0505TF.gly4.G458Y Env, pseudotyped virus produced in 293S GnTI- cells (HIV-1); assay: cell-based or functional assay
[23] = biological target: CH0505TF.gly4.G458Y Env, pseudotyped virus produced in 293T cells (HIV-1); assay: cell-based or functional assay
[24] = biological target: CH0505TF G458S Env, pseudotyped virus produced in 293S GnTI- cells (HIV-1); assay: cell-based or functional assay
[25] = biological target: CH0505TF G458W Env, pseudotyped virus produced in 293S GnTI- cells (HIV-1); assay: cell-based or functional assay
[26] = biological target: CH0505TF G458K Env, pseudotyped virus produced in 293S GnTI- cells (HIV-1); assay: cell-based or functional assay
[27] = biological target: CH0505TF G458R Env, pseudotyped virus produced in 293S GnTI- cells (HIV-1); assay: cell-based or functional assay
[28] = biological target: CH0505TF G458D Env, pseudotyped virus produced in 293S GnTI- cells (HIV-1); assay: cell-based or functional assay
[29] = biological target: CH0505TF G458Y.N280D Env, pseudotyped virus produced in 293S GnTI- cells (HIV-1); assay: cell-based or functional assay
[30] = biological target: CH0505TF G458F Env, pseudotyped virus produced in 293S GnTI- cells (HIV-1); assay: cell-based or functional assay
[31] = biological target: CH0505TF G458L Env, pseudotyped virus produced in 293S GnTI- cells (HIV-1); assay: cell-based or functional assay
[32] = biological target: HIV-1 CH0505TF.G458Y Env on Env-pseudotyped virus produced in 293S GnTI-/- cells (Man5-enrichment) (HIV-1); assay: cell-based or functional assay; remark: listed apart in the source
[33] = biological target: HIV-1 CH0505TF.G458Y Env on Env-pseudotyped virus produced in 293T cells (HIV-1); assay: cell-based or functional assay
[34] = biological target: CH0505TF G458E Env, pseudotyped virus produced in 293S GnTI- cells (HIV-1); assay: cell-based or functional assay
CH505 M5 gp120 (HIV-1) = assay: method not named in the legend (FIG. 59F); GMP M5 gp120

| Substance | IC50 (µg/ml) in TZM-bl [7] | IC50 (ug/ml) in TZM-bl cells [8] | IC50 (µg/ml) in TZM-bl [9] | IC50 (µg/ml) in TZM-bl [10] | IC50 (µg/ml) in TZM-bl [11] | IC50 (µg/ml) in TZM-bl [12] | IC50 (ug/ml) in TZM-bl cells [13] | IC50 (ug/ml) in TZM-bl cells [14] | IC50 (µg/ml) in TZM-bl [15] | IC50 (µg/ml) in TZM-bl [16] | IC50 (µg/ml) in TZM-bl [17] | ID50/IC50 in TZM-bl [18] | IC50 (µg/ml) in TZM-bl [19] | further results |
| --- | --- | --- | --- | --- | --- | --- | --- | --- | --- | --- | --- | --- | --- | --- |
| CH103 (antibody) | 3.7 µg/mL | 0.67 µg/mL | 1.9 µg/mL | 0.57 µg/mL | 5.2 µg/mL | 0.18 µg/mL | 0.005 µg/mL | 1.6 µg/mL | > 40 µg/mL | > 40 µg/mL | 0.19 µg/mL | 0.09 µg/mL | 0.63 µg/mL | log AUC [1]: 12.2 log AUC; log AUC [2]: 11.6 log AUC; log AUC [3]: 11.1 log AUC; log AUC [4]: 7.1 log AUC; log AUC [5]: 12.6 log AUC; log AUC [6]: 10.7 log AUC; IC50 (µg/ml) in TZM-bl [20]: 0.44 µg/mL |
| CH235 (antibody) | > 25 µg/mL | 0.03 µg/mL | 0.3 µg/mL | 0.03 µg/mL | > 50 µg/mL | 0.03 µg/mL | 0.004 µg/mL | 0.16 µg/mL | > 50 µg/mL | > 50 µg/mL | 0.006 µg/mL | > 25 µg/mL | > 25 µg/mL | IC50 (µg/ml) in TZM-bl cells [21]: 0.009 µg/mL; IC50 (µg/ml) in TZM-bl cells [22]: < 0.005 µg/mL; IC50 (µg/ml) in TZM-bl cells [23]: 0.064 µg/mL; IC50 (µg/ml) in TZM-bl [8]: < 0.02 µg/mL; IC50 (µg/ml) in TZM-bl cells [24]: 0.005 µg/mL; IC50 (µg/ml) in TZM-bl cells [25]: < 0.005 µg/mL; IC50 (µg/ml) in TZM-bl cells [26]: 0.022 µg/mL; IC50 (µg/ml) in TZM-bl cells [27]: < 0.005 µg/mL; IC50 (µg/ml) in TZM-bl cells [28]: 0.011 µg/mL; IC50 (µg/ml) in TZM-bl cells [29]: 2.69 µg/mL; IC50 (µg/ml) in TZM-bl cells [30]: < 0.005 µg/mL; IC50 (µg/ml) in TZM-bl cells [31]: 0.015 µg/mL; IC50 (µg/ml) in TZM-bl [32]: < 0.02 µg/mL; IC50 (µg/ml) in TZM-bl [33]: 0.2 µg/mL; IC50 (µg/ml) in TZM-bl cells [34]: 0.012 µg/mL; Kd (CH505 M5 gp120 (HIV-1)): 8 nM |
